Patent US20090175881A1 (SCHERING, published 2009)
Several values for one entry are separate records, joined by “and”; a condition that tells them apart may be missing. Identical values can stand only once.

T1: rhIL-17A (human, UniProt Q16552 24-155)
T1 sequence: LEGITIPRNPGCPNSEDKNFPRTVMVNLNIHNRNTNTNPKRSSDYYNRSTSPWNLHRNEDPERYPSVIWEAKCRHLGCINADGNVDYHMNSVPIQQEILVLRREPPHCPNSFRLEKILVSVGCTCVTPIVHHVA

T2: R&D Systems human IL-17A (human, UniProt Q16552 20-155)
T2 construct: Bought from R&D Systems, made in E. coli; also called R&D IL-17A; E. coli-derived human IL-17 (IL-17A)
T2 sequence: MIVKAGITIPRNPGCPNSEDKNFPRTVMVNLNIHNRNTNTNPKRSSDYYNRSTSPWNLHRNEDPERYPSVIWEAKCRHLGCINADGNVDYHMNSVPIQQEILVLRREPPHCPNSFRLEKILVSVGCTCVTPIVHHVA

T3: native human IL-17A (human, UniProt Q16552 24-155)
T3 sequence: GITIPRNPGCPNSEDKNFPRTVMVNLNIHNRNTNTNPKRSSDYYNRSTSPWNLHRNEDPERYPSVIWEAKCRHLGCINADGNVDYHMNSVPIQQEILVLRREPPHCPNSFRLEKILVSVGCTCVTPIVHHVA

T4: cynomolgus monkey IL-17A (cynomolgus monkey, UniProt A0A2K5TTB0 24-155)
T4 sequence: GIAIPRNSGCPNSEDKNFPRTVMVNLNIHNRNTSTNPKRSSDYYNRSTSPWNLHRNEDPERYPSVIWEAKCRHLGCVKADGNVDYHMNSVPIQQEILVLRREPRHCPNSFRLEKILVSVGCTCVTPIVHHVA

T5: FLAG-huIL-17A (human, UniProt Q16552 24-155)
T5 construct: also called FLAG-huL-17A; FLAG-IL-17A
T5 sequence: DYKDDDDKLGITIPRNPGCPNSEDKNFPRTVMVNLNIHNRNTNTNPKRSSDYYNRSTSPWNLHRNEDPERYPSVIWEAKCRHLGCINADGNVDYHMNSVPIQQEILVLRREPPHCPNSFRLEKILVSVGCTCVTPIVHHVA

B1: humanized 16C10 wt (antibody, human IgG1, kappa, V domains shown)
VH: QVQLQESGPGLVKPSETLSLTCTVSGFSLPSHSVSWIRQPPGKGLEWIGIIWNNGGTDYNSAFKSRVTISVDTSKNQFSLKLSSVTAADTAVYYCARNMYITDYYYENYFMDAWGQGTLVTVSS
VL: DIVMTQSPLSLPVTPGEPASISCKSSQSLLFSENQKNYLAWYLQKPGQSPQLLIYWTSTRQSGVPDRFSGSGSGTDFTLKISRVEAEDVGVYYCQQSYYTPYTFGQGTKVEIKR
notes: Humanized antibody with the parental rat CDRs; Human IgG1/kappa; also called hu 16C10 wt; hu16C10 (wt)
B2: hu 16C10 VH M96A (antibody, human IgG1, V domains shown)
VH: QVQLQESGPGLVKPSETLSLTCTVSGFSLPSHSVSWIRQPPGKGLEWIGIIWNNGGTDYNSAFKSRVTISVDTSKNQFSLKLSSVTAADTAVYYCARNAYITDYYYENYFMDAWGQGTLVTVSS
VL: DIVMTQSPLSLPVTPGEPASISCKSSQSLLFSENQKNYLAWYLQKPGQSPQLLIYWTSTRQSGVPDRFSGSGSGTDFTLKISRVEAEDVGVYYCQQSYYTPYTFGQGTKVEIKR
notes: Variant of hu 16C10 wt; Human IgG1/kappa; also called hu16C10 (M96A)
B3: hu 16C10 VH N54A (antibody, human IgG1, V domains shown)
VH: QVQLQESGPGLVKPSETLSLTCTVSGFSLPSHSVSWIRQPPGKGLEWIGIIWNAGGTDYNSAFKSRVTISVDTSKNQFSLKLSSVTAADTAVYYCARNMYITDYYYENYFMDAWGQGTLVTVSS
VL: DIVMTQSPLSLPVTPGEPASISCKSSQSLLFSENQKNYLAWYLQKPGQSPQLLIYWTSTRQSGVPDRFSGSGSGTDFTLKISRVEAEDVGVYYCQQSYYTPYTFGQGTKVEIKR
notes: Variant of hu 16C10 wt; Human IgG1/kappa; also called hu16C10 (N54A)
B4: hu 16C10 VH N54Q (antibody, human IgG1, V domains shown)
VH: QVQLQESGPGLVKPSETLSLTCTVSGFSLPSHSVSWIRQPPGKGLEWIGIIWNQGGTDYNSAFKSRVTISVDTSKNQFSLKLSSVTAADTAVYYCARNMYITDYYYENYFMDAWGQGTLVTVSS
VL: DIVMTQSPLSLPVTPGEPASISCKSSQSLLFSENQKNYLAWYLQKPGQSPQLLIYWTSTRQSGVPDRFSGSGSGTDFTLKISRVEAEDVGVYYCQQSYYTPYTFGQGTKVEIKR
notes: Variant of hu 16C10 wt; Human IgG1/kappa; also called hu16C10 (N54Q)
B5: hu 16C10 VH N54Q/M96A/M100hF (antibody, human IgG1, kappa, V domains shown)
VH: QVQLQESGPGLVKPSETLSLTCTVSGFSLPSHSVSWIRQPPGKGLEWIGIIWNQGGTDYNSAFKSRVTISVDTSKNQFSLKLSSVTAADTAVYYCARNAYITDYYYENYFFDAWGQGTLVTVSS
VL: DIVMTQSPLSLPVTPGEPASISCKSSQSLLFSENQKNYLAWYLQKPGQSPQLLIYWTSTRQSGVPDRFSGSGSGTDFTLKISRVEAEDVGVYYCQQSYYTPYTFGQGTKVEIKR
notes: Human IgG1/kappa; also called hu 16C10 VH 54Q/M96A/M100hF; hu16C10 (N54Q/M96A/M100hF)
B6: humanized 16C10 (VH N54Q/M96A) (antibody, human IgG1, kappa, V domains shown)
VH: QVQLQESGPGLVKPSETLSLTCTVSGFSLPSHSVSWIRQPPGKGLEWIGIIWNQGGTDYNSAFKSRVTISVDTSKNQFSLKLSSVTAADTAVYYCARNAYITDYYYENYFMDAWGQGTLVTVSS
VL: DIVMTQSPLSLPVTPGEPASISCKSSQSLLFSENQKNYLAWYLQKPGQSPQLLIYWTSTRQSGVPDRFSGSGSGTDFTLKISRVEAEDVGVYYCQQSYYTPYTFGQGTKVEIKR
notes: Human IgG1/kappa; also called hu 16C10; hu16C10
B7: rat 4C3 (antibody, V domains shown)
VH: QVELRESGPGLVQPSQTLSLTCTVSGFSLPSHSVSWIRQPPGKGLEWMGIIWNNGGTDYNSAFKSRLTISRDTSKSQVFLKMNSLQTEDTAMYFCARNMYITDYYYENYFMDAWGQGASVTVSS
VL: DIVMTQSPSSLAVSVGETVTLNCKSSQSLLFSENQKNYLAWYQHKSGQSPKLLVYWTSTRQSGVPDRFMGSGSGTDFTLTISSVQAEDLAIYYCQQSYYTPYTFGAGTKLELKR
B8: rat 30C10 (antibody, V domains shown)
VH: EVQLVESGGGLVQPGRSQKLSCVVSGFTFNNYWMTWIRQAPGKGLEWVASVSNTGSSTYYPASVKGRFTISRDNAKSTLYLQMNSLRSEDTATYYCTREGAYYLDYWGQGVMVTVSS
VL: DIVMTQSPSSLAVSPGETVTINCKSSQSLFWSESHMNYLAWYQQKPGQSPKLLIYYASTRQSGVPDRFIGSGSGTDFTLTISGVQAEDLAVYYCHHHYDSHTFGAGTKLELKR
notes: Parental rat monoclonal antibody (hybridoma PTA-7739); also called 30C10C
B9: rat 12E6 (antibody, V domains shown)
VH: EVQLEESGGGLVQPGRSLKLSCAASGFTFRDYYMVWVRQAPKKGLEWVASISYEGSSIYYGESVKGRFTISRDNAKSTLYLQMNSLRSEDTATYYCARHGFNPFDYWGRGVMVTVSS
VL: DIQMTQSPSSLSASLGDRVTITCRTSQDIGNYLSWFQQKPGKSPRLMIYGASNLEDGVPSRFSGSRSGSDYSLTISSLESEDTAIYYCLQYDKYPNTFGAGTKLELKR
B10: chimeric 16C10 (antibody, human IgG1, kappa, V domains shown)
VH: QVELRESGPGLVQPSQTLSLTCTVSGFSLPSHSVSWIRQPPGKGLEWMGIIWNNGGTDYNSAFKSRLTISRDTSKSQVFLKMNSLQTEDTAMYFCARNMYITDYYYENYFMDAWGQGASVTVSS
VL: DIVMTQSPSSLAVSIGETVTLNCKSSQSLLFSENQKNYLAWYQHKSGQSPKLLVYWTSTRQSGVPDRFMGSGSGTDFTLTISSVQAEDLAIYYCQQSYYTPYTFGAGTKLELKR
notes: also called chimeric 16C10C

Assays:
rhIL-17A [1] = biological target: T1, rhIL-17A; test: cell-based or functional assay
rhIL-17A [2] = biological target: T1, rhIL-17A; test: cell-based or functional assay; remark: listed apart in the source
rhIL-17A [3] = biological target: T1, rhIL-17A; test: KinExA, solution equilibrium
Description: (§1) The equilibrium dissociation constants (Kd) for anti human IL-17A antibodies were determined using the KinExA 3000 instrument (Sapidyne Instruments Inc., Boise, Id., USA). KinExA uses the principle of the Kinetic Exclusion Assay method based on measuring the concentration of uncomplexed antibody in a mixture of antibody, antigen and antibody-antigen complex. […] The concentration of free antibody is measured by exposing the mixture to a solid-phase immobilized antigen for a very brief period of time. l practice, this is accomplished by flowing the solution phase antigen-antibody mixture past antigen-coated particles trapped in a flow cell. Data generated by the instrument are analyzed using custom software.
(§2) IL-17A was derived from either human (“hu”), cynomolgus monkey (“cyno”), or mouse (“mu”). IL-17A from the same species was used in both the immobilized and solution phases for each KinExA determination. Poly(methyl-methacrylate) (PMMA) particles (98 micron) were coated with human, cyno or mouse IL-17A according to Sapidyne “Protocol for coating PMMA particles with biotinylated ligands having short or nonexistent linker arms.” All experimental procedures were done according to the KinExA 3000 manual. All runs were done in duplicate.
(§3) Two-fold serial dilutions of the antigen were prepared and mixed with the antibody at constant concentration. The mixture was incubated for 2 hours at 25° C. to equilibrate.

rhIL-17A [4] = biological target: T1, rhIL-17A; test: indirect ELISA, rhIL-17A coated on plate
Description: Binding of anti-human-IL-17A monoclonal antibodies to rhIL-17A is assessed using an indirect enzyme-linked immunosorbent assay (ELISA). Briefly, a fixed concentration of rhIL-17A is bound directly to the wells of a microtiter plate. The monoclonal anti-IL-17A to be assayed is then is added to the rhIL-17A coated plate, where the antibody is captured and quantitated.
A 96-well U-bottom MaxiSorp plate is coated with 50 μl/well of rhIL-17A (0.5 μg/ml) in carbonate coating buffer (the “assay plate”). Carbonate coating buffer is 2.9 g/L NaHFCO₃, 1.6 g/L Na₂CO₃, pH 9.4. Plates are incubated covered at 4° C. overnight. Monoclonal antibodies to be screened are serially diluted in duplicate across the rows of a V-bottom plate such that the final volume is 60 μl/well (the “serial dilution plate”). The assay plate is washed three times with PBS-Tween in a plate washer (SkanWasher, Molecular Devices, Sunnyvale, Calif., USA) and blotted dry. PBS-Tween is obtained by adding 0.5 ml/L Tween 20 to 1×PBS. Fifty μl from each well of the serial dilution plate is transferred to the assay plate and incubated at 25° C. for one hour. Secondary antibodies are diluted 1/2000 in diluent (PBS-BSA-Tween, which is PBS-Tween with 1 g/L BSA). The secondary antibody for rat monoclonal antibodies is goat anti-rat IgG (H+L)—HRP (Jackson ImmunoResearch Laboratories, Inc., West Grove, Pa., USA). The secondary antibody for chimeric and humanized monoclonal antibodies is F(ab′)₂ goat anti-human IgG Fcγ—HRP (Jackson ImmunoResearch Laboratories, Inc.). The assay plate is washed as before. Diluted secondary antibodies (100 μl/well) are added to the appropriate wells in the assay plate, and the plate is incubated at 25° C. for 45 minutes. The assay plate is washed as before.

rhIL-17A [5] = biological target: T1, rhIL-17A; test: sandwich ELISA, IL-17A captured on rat 12E6, antibody titrated
Description: (§4) Binding of anti-human-IL-17A monoclonal antibodies to rhIL-17A is assessed using an ELISA as follows. Briefly, a capture antibody is bound to the wells of a microtiter plate, after which a fixed concentration of rhIL-17A is added. The monoclonal anti-IL-17A to be assayed is then titrated versus the bound rhIL-17A on the plate to determine the concentration of antibody needed to achieve half-maximal binding. A more detailed protocol follows.
(§5) A 96-well microtiter plate is coated with 100 μl/well of capture antibody (rat anti-hIL-17A 12E6, 0.5 μg/ml) in carbonate coating buffer pH 9.5 (the “assay plate”). Plates are incubated covered at 4° C. for 24 to 48 hours. The assay plate is washed three times in a plate washer (SkanWasher, Molecular Devices, Sunnyvale, Calif., USA) and blotted dry. The plate is then blocked with 200 μl/well of ELISA assay buffer (20 mM Tris-HCl, 0.15 M NaCl, pH7.4, 0.5% BSA, 0.05% Tween-20, SM EDTA) for one hour at 25° C. on an orbital shaker. The plate is washed, and 100 μl/well of either adenovirus-derived rhIL-17A or E. coli-derived human IL-17 (IL-17A) (R&D Systems, Minneapolis, Minn., USA) (0.1 g/ml) is added in ELISA assay buffer and incubated for 2 hours at 25° C. on an orbital shaker. […] Plates are incubated for 1.5 hours at 25° C. on an orbital shaker. Plates are washed and 100 μl/well secondary antibody (F(ab′)₂ goat anti-human kappa light chain—HRP, 1:20,000 dilution, BioSource, Carlsbad, Calif., USA) is added, except for assay blank wells. Plates are washed twice (i.e. two cycles of 3 washes per cycle) with plate rotation between cycles. TMB substrate (Kirkegaard & Perry Laboratories, Gaithersburg, Md., USA) is added at 100 μl/well and incubated 3-5 minutes on an orbital shaker. Stop solution is added (100 μl/well) and the plate is read for absorbance at 450-570 um on a plate reader (Versamax, Molecular Devices, Sunnyvale, Calif., USA).

R&D Systems human IL-17A = biological target: T2, R&D Systems human IL-17A; test: as above
Description: as §4, §5

rhIL-17A [6] = biological target: T1, rhIL-17A; test: cell-based or functional assay; remark: listed apart in the source
native human IL-17A [7] = biological target: T3, native human IL-17A; test: cell-based or functional assay
cynomolgus monkey IL-17A [8] = biological target: T4, cynomolgus monkey IL-17A; test: cell-based or functional assay
native human IL-17A [9] = biological target: T3, native human IL-17A; test: cell-based or functional assay; remark: listed apart in the source
cynomolgus monkey IL-17A [10] = biological target: T4, cynomolgus monkey IL-17A; test: cell-based or functional assay; remark: listed apart in the source
cynomolgus monkey IL-17A [11] = biological target: T4, cynomolgus monkey IL-17A; test: cell-based or functional assay; remark: listed apart in the source
cynomolgus monkey IL-17A [12] = biological target: T4, cynomolgus monkey IL-17A; test: KinExA, solution equilibrium
Description: as §1, §2, §3

rhIL-17A [13] = biological target: T1, rhIL-17A; test: cell-based or functional assay; remark: listed apart in the source
cynomolgus monkey IL-17A [14] = biological target: T4, cynomolgus monkey IL-17A; test: cell-based or functional assay; remark: listed apart in the source
FLAG-huIL-17A [15] = biological target: T5, FLAG-huIL-17A; test: KinExA, solution equilibrium
Description: as §1, §2, §3

cynomolgus monkey IL-17A [16] = biological target: T4, cynomolgus monkey IL-17A; test: ECL (Origen); area under the curve
Excerpt: (§6) Origen electrochemiluminescence technology, developed by IGEN, Inc. (Gaithersburg, Md., USA), and was employed to measure the binding of rat anti-human IL-17A antibodies (and one chimeric antibody) to FLAG-huL-17A. […] Electrochemiluminescence technology uses a stable ruthenium metal chelate (Ori-TAG) which, in the presence of tripropylamine (TPA), generates electrochemiluminescence upon voltage application. Paramagnetic beads, microns in diameter, act as the solid phase and facilitate rapid assay kinetics. The bead/complex is channeled through a flow cell and captured at an electrode by magnetic application. Voltage is applied and resulting electrochemiluminescence is measured.
(§7) ECL assays were performed as follows. Three-fold serial dilutions of anti-human IL-17A mAbs in 50 μl of the assay buffer were made in a 96-well microtiter plate to give 1-3 μg/ml final concentration in the first well. […] Finally 50 μl of Origen Streptavidin-Dynabeads at 0.1 mg/ml was added to each well. […] GraphPad Prism software (GraphPad Software, San Diego, Calif., USA) was used to plot the data and calculate area under the curve, which is a rough measure of binding.

FLAG-huIL-17A [17] = biological target: T5, FLAG-huIL-17A; test: ECL (Origen), antibody titrated against biotinylated antigen; area under the curve
Excerpt: as §6, §7

Row | Binder | IC50, synoviocyte IL-6 production, rhIL-17A (30 ng/ml) (rhIL-17A [1]) | IC50, synoviocyte IL-8 production, rhIL-17A (30 ng/ml) (rhIL-17A [2]) | Kd (rhIL-17A [3]) | EC50 (rhIL-17A [5]) | EC50 (R&D Systems human IL-17A) | IC50, Ba/F3 hIL-17Rc-mGCSFR proliferation assay, IL-17A at 100 pM (rhIL-17A [6]) | IC50, inhibition of IL-6 production in NHDF cells, rhIL-17A (rhIL-17A [13]) | IC50, inhibition of IL-6 production in NHDF cells, cyno IL-17A (cynomolgus monkey IL-17A [14]) | other results
1 | B1 | 0.08 µg/mL | 0.042 µg/mL | 0.0088 nM | 0.066 nM | 0.13 nM | – | – | – | EC50 (rhIL-17A [4]): 0.212 nM
2 | B2 | 0.06 µg/mL | 0.025 µg/mL | 0.0099 nM | 0.06 nM | – | – | – | – | –
3 | B3 | 0.06 µg/mL | 0.025 µg/mL | 0.0108 nM | 0.075 nM | – | – | – | – | –
4 | B4 | 0.06 µg/mL | 0.025 µg/mL | 0.007 nM | 0.065 nM | – | – | – | – | –
5 | B5 | 0.07 µg/mL | 0.04 µg/mL | 0.01 nM | 0.08 nM | 0.118 nM | 11 pM | – | – | –
6 | B6 | 0.07 µg/mL | 0.038 µg/mL | 0.0039 nM | 0.092 nM | 0.136 nM | 15 pM and 13 pM and 27 pM | – | – | IC50, synoviocyte IL-6 production, Native huIL-17A (10 ng/ml) (native human IL-17A [7]): 0.025 µg/mL; IC50, synoviocyte IL-6 production, NHP IL-17A (30 ng/ml) (cynomolgus monkey IL-17A [8]): 0.07 µg/mL; IC50, synoviocyte IL-8 production, Native huIL-17A (10 ng/ml) (native human IL-17A [9]): 0.05 µg/mL; IC50, synoviocyte IL-8 production, NHP IL-17A (30 ng/ml) (cynomolgus monkey IL-17A [10]): 0.038 µg/mL; IC50, Ba/F3 hIL-17Rc-mGCSFR proliferation assay, IL-17A at 276 pM (rhIL-17A [6]): 149 pM; IC50, Ba/F3 hIL-17Rc-mGCSFR proliferation assay, IL-17A at 100 pM (cynomolgus monkey IL-17A [11]): 17 pM; Kd (cynomolgus monkey IL-17A [12]): 0.0163 nM
7 | B7 | – | – | – | – | – | – | 0.5 nM | 0.2 nM | –
8 | B8 | – | – | – | – | – | – | 0.5 nM | 0.2 nM | Kd (FLAG-huIL-17A [15]): 0.011 nM; Kd (cynomolgus monkey IL-17A [12]): 0.0326 nM; Area Under Peak (cynomolgus monkey IL-17A [16]): 124000; Area Under Peak (FLAG-huIL-17A [17]): 312000
9 | B9 | – | – | – | – | – | – | > 70 nM | > 70 nM | –
10 | B10 | – | – | – | – | – | 29 pM | – | – | EC50 (rhIL-17A [4]): 0.157 nM; Area Under Peak (FLAG-huIL-17A [17]): 346000
